Assay results: patent US20090324566A1 (published 2009)

Assays:
[1] = molecular target: T1, MAGE-A4 peptide on HLA-A*24:02 (human); assay: multimer staining
T1 peptide: NYKRCFPVI

[2] = molecular target: T2, MAGE-A4 peptide on HLA-A*02:01 (human); assay: killing
T2 peptide: NYKRCFPVI
Procedure: (§1) The T2 cells, the T2-A24 cells, and T2-A2 cells prepared by transfecting HLA-A0201 gene into T2 cells were washed 3 times with RPMI 1640 medium, and the washed cells were suspended in RPMI 1640 medium so as to have a density of 5×10⁶ cells/mL. P143 or P715 was added to 1 mL each of the above-mentioned cell suspensions so as to have a final concentration of 10 μM, and the mixture was allowed to stand at room temperature for 15 minutes. Thereafter, 1 mL each of RPMI 1640 medium containing 10% FCS was added thereto, and the mixture was incubated at 37° C. for 1 hour. […]
(§2) The ms69 cells, the RNA-transduced ms69 cells, the #2-28 cells, the CD8 positive cells, and the RNA-transduced CD8 cells were washed twice with RPMI 1640 medium, and the washed cells were suspended in RPMI 1640 medium containing 10% FCS so as to have a density of 2×10⁶ cells/mL, 1×10⁶ cells/mL, 5×10⁵ cells/mL, 2.5×10⁵ cells/mL, 1.25×10⁵ cells/mL, and 6.25×10⁴ cells/mL (effector cells), respectively, and a 100 μL portion thereof was put in each well of a 96-well V-bottom plate. […] The mixture was reacted at 37° C. for 4 hours, and thereafter the supernatants were collected by centrifugation, and an amount of ⁵¹Cr released to 100 μL of the supernatant was determined by using a gamma counter. The specific cytotoxic activity was calculated from the measured value of radioactivity according to the following formula.

[3] = molecular target: T3, SAGE peptide on HLA-A*24:02 (human); assay: killing
T3 peptide: LYATVIHDI
Procedure: as §1, §2

binding result [1]: recognises
B1: HLA-A24-restricted, MAGE-A4 143-151-specific TCR of CTL clone #2-28 (SEQ ID NOs 1 and 2) (TCR, V domains shown)
Valpha: AQSVSQHNHHVILSEAASLELGCNYSYGGTVNLFWYVQYPGQHLQLLLKYFSGDPLVKGIKGFEAEFIKSKFSFNLRKPSVQWSDTAEYFCAGRGGGNKLTFGTGTQLKVEL
Vbeta: DTGVSQNPRHKITKRGQNVTFRCDPISEHNRLYWYRQTLGQGPEFLTYFQNEAQLEKSRLLSDRFSAERPKGSFSTLEIQRTEQGDSAMYLCASSLAQGAGETQYFGPGTRLLVL
binding result [2]: no recognition | binding result [3]: no recognition
